Measured values as given in US20230340555A1, “PRODUCTION OF GLYCOSYLATED CANNABINOIDS” (WILLOW BIOSCIENCES, INC., priority 2020, published 2023).

Test system: CN3 yeast strain host cells
Assay: Detection of glycosylated cannabinoids and cannabinoid precursors in yeast cells expressing UDP-glycosyl transferase (HPLC-MS)
Assay type: cell-based
Set-up: key to CBDA-glc / OLA-glc / CBGA-glc / CBGA-(glc)2 / CBD-glc / CBD-(glc)2 / OLA-(glc)2 / CBGA-glucuronic acid: (+) represents the lowest detected quantities; (++), (+++), and (++++) signify relative increasing intermediate detected levels; (++), (+++), and (++++) signify relative increasing intermediate detected levels; (++), (+++), and (++++) signify relative increasing intermediate detected levels; (+++++) represents the highest detected quantities; No detectable levels of a glycosylated cannabinoid compound or glycosylated cannabinoid precursor compound are indicated by “n.d.”
Conditions: for production of glycosylated cannabinoids or cannabinoid precursor compounds: pellet or supernatant of recombinant yeast host cells transformed with the UGT; for CBD-glc: 0.5 g/L CBD
Excerpt: CN3 yeast strain host cells were transformed as described in Example 1 with one of the following heterologous UGT genes: (1) AtUGT73C6, (2) AtUGT73B4, (3) AtUGT71 D1, (4) AtUGT76E12, (5) AtUGT88A1, (6) HaUGT76G1-L, (7) At5g49690, (8) AtUGT76C4, (9) CsUGT73C6, (10) SrUGT76C1, (11) AtUGT85A3, (12) AtUGT73B1, (13) Atg65550, (14) AtUGT76B1, (15) ATUGT76B1, (16) CsUGT75B2, (17) CsUGT73B4, (18) CsUGT73B1, (19) CsUGT75D1-DN11028, and (20) CsUGT71D1-DN48028. The transformed host cells were pre-grown overnight in yeast extract peptone dextrose (YPD) growth medium and then back diluted into yeast extract peptone galactose (YPG) to OD600 = 0.2. […] Strains were incubated for 20 h at 28° C. rotating at 600 RPM in an EPOCH|2 microplate reader (BioTek). Subsequently, samples were treated with an extraction solvent (80 % Acetonitrile, 20 % Methanol) for 1 hour rotating at 100 RPM. After 20 minutes centrifugation at 12,000 RPM, the supernatant was filtered with a basix 13 mm syringe filter (0.22 µm pore size, Nylon membrane) and transferred to a new tube for further analysis.
Glycosylated cannabinoid compounds and glycosylated cannabinoid precursor compounds were assayed in the supernatant and the cellular pellet employing HPLC and HPLC-MS analysis. HPLC and HPLC-MS analysis was carried out as described below to detect the following glycosylated cannabinoid and cannabinoid precursor compounds: CBGA monoglucoside, CBGA diglucoside, CBDA monoglucoside, CBDA diglucoside, CBGA glucuronic acid, CBD monoglucoside, CBD diglucoside, olivetolic acid monoglucoside (“OliAcid monoglucoside”), olivetolic acid diglucoside (“OliAcid diglucoside”).
HPLC analysis was carried out on an Agilent Technologies 1290 Infinity system, consisting of a vacuum degasser, a binary pump, a thermostated autosampler, a thermostated column compartment and a diode array detector (DAD). A Zorbax Eclipse Plus EC-18 column (2.1 × 50 mm, 1.8 µm, Agilent, USA) was used with a mobile phase composed of 0.1% formic acid in both (A) water with 0.2 % Formic Acid and (B) Acetonitrile with 0.2 % Formic Acid. The chromatographic conditions were set as follows: 0.0-8.0 min linear gradient from 5 to 95% B; 8.1-9.09 min […], 9.10-11.0 min 5 to 95% A for equilibration of the column with the initial conditions. The flow rate was set at 0.4 ml/min. The column temperature was set at 40° C. The sample injection volume was 5 µL. The UV/DAD acquisitions were carried out in the range 190-400 nm and chromatograms were acquired at 265 and 350 nm.
HPLC-MS analysis was carried out to confirm the identity of the HPLC peaks using an Agilent Technologies 6530 Accurate-Mass quadrupole time of flight (QToF) mass spectrometer operating in negative ionization (ESI -) mode. The mass spectrometer experimental parameters were set as follows: the capillary voltage was 3.5 kV, the nebulizer (N2) pressure was 35 psi, the drying gas temperature was 350° C., the drying gas flow was 11 L/min and the skimmer voltage was 65 V. Data were acquired by Agilent Mass Hunter software. The mass spectrometer was operated in full-scan mode in the m/z range 50-1100. Extracted ion chromatograms (EICs) were obtained with an accuracy of 10 ppm m/z from total ion chromatogram (TIC) employing the m/z corresponding to the molecular ions [M-H]^- 385.1504 for Olivetolic Acid Mono-Glucoside, 547.2032 for Olivetolic Acid di-Glucoside, 521.2756 for CBGA Mono-Glucoside, 683.3284 for CBGA Di-Glucoside, 535.2549 for CBGA Glucuronic Acid, 519.2600 for CBDA Mono-Glucoside, 475.2701 for CBD Mono-Glucoside, 637.3302 for CBD Di-Glucoside.
The glycosylated cannabinoid compounds and glycosylated cannabinoid precursor compounds were detected in a relative and semi-quantitative fashion. […]

[1] = 20 h growth, detected in PELLET, 0.05 mM hexanoic acid
[2] = 20 h growth, detected in SUPERNATANT, 0.2 mM hexanoic acid

Molecule | CBGA-glc [1] | OLA-glc [1] | production of glycosylated cannabinoids or cannabinoid precursor compounds | CBGA-(glc)2 [1] | CBGA-glucuronic acid [1] | OLA-(glc)2 [1] | CBD-glc (20 h growth, detected in PELLET) | CBGA-glc [2] | OLA-(glc)2 [2] | OLA-glc [2] | CBD-glc (20 h growth, detected in SUPERNATANT) | CBDA-glc [1]
AtUGT88A1: UDP-glycosyl transferase from Arabidopsis thaliana, amino acid sequence SEQ ID NO: 6 (protein, listed as Arabidopsis thaliana) MGEEAIVLYPAPPIGHLVSMVELGKTILSKNPSLSIHIILVPPPYQPESTATYISSVSSSFPSITFHHLPAVTPYSSSSTSRHHHESLLLEILCFSNPSVHRTLFSLSRNFNVRAMIIDFFCTAVLDITADFTFPVYFFYTSGAACLAFSFYLPTIDETTPGKNLKDIPTVHIPGVPPMKGSDMPKAVLERDDEVYDVFIMFGKQLSKSSGIIINTFDALENRAIKAITEELCFRNIYPIGPLIVNGRIEDRNDNKAVSCLNWLDSQPEKSVVFLCFGSLGLFSKEQVIEIAVGLEKSGQRFLWVVRNPPELEKTELDLKSLLPEGFLSRTEDKGMVVKSWAPQVPVLNHKAVGGFVTHCGWNSILEAVCAGVPMVAWPLYAEQRFNRVMIVDEIKIAISMNESETGFVSSTEVEKRVQEIIGECPVRERTMAMKNAAELALTETGSSHTALTTLLQSWSPK | ++ | + | detected | – | – | – | – | – | – | – | – | –
AtUGT73B4: UDP-glycosyl transferase from Arabidopsis thaliana, amino acid sequence SEQ ID NO: 10 (protein, listed as Arabidopsis thaliana) MNREQIHILFFPFMAHGHMIPLLDMAKLFARRGAKSTLLTTPINAKILEKPIEAFKVQNPDLEIGIKILNFPCVELGLPEGCENRDFINSYQKSDSFDLFLKFLFSTKYMKQQLESFIETTKPSALVADMFFPWATESAEKIGVPRLVFHGTSSFALCCSYNMRIHKPHKKVASSSTPFVIPGLPGDIVITEDQANVTNEETPFGKFWKEVRESETSSFGVLVNSFYELESSYADFYRSFVAKKAWHIGPLSLSNRGIAEKAGRGKKANIDEQECLKWLDSKTPGSVVYLSFGSGTGLPNEQLLEIAFGLEGSGQNFIWVVSKNENQVGTGENEDWLPKGFEERNKGKGLIIRGWAPQVLILDHKAIGGFVTHCGWNSTLEGIAAGLPMVTWPMGAEQFYNEKLLTKVLRIGVNVGATELVKKGKLISRAQVEKAVREVIGGEKAEERRLRAKELGEMAKAAVEEGGSSYNDVNKFMEELNGRK | ++++ | ++++ | detected | ++ | ++ | ++ | ++ | ++ | ++ | +++++ | ++ | –
CsUGT73C6: UDP-glycosyl transferase from Cannabis sativa, amino acid sequence SEQ ID NO: 16 (protein, listed as Cannabis sativa) MASEPYKLHLIVIPFMAPGHFIPMADMARKLAEHGAMITLITLPVIAARIRPIIEQATENSNLKIQLVQVSLPLHEFGLPEGCDTVDLVPSRNLLLSFFIALDELQQPIEQVVSELKPRPSCIIADKHLPWTAEIATKFGIPRVLFDGMSCFSLLCNHMIRKSQVHLSVPMSVPFVVPGMPDHLEFTRNQLAADLYPNLEFGQKFHDRIRESEEGADGFLVNSFEELEWKYVEGYRKEKVGKAWCIGPVSLFNKTKLEVAQRGNNPAGAVDEKQCTEWLDSWPKSCVVYACLGSVSRLLIPQMIELGVALEASNKPFIWVIRGYDQEEEIEKWISESGFKERTKSRALLIFGWAPQVLILSHSSVGGFLTHCGWNSTLEGITYGKPMITWPMFAEQFYNQKLIVQVLKVGESVGPKFVVPYGREEEFGVFVLSKDILEAIEKVMAQDKEGEERRERVKRLSDMAQKAIEEGGSSYLDMKLFIEDIRNLHIS | – | ++ | detectable | – | – | – | – | – | – | ++ | – | –
AtUGT76C4: UDP-glycosyl transferase from Arabidopsis thaliana, amino acid sequence SEQ ID NO: 12 (protein, listed as Arabidopsis thaliana) MEKSNGLRVILFPLPLQGCINPMIQLAKILHSRGFSITVIHTCFNAPKASSHPLFTFIQIQDGLSETETRTRDVKLLITLLNQNCESPVRECLRKLLQSAKEEKQRISCLINDSGWIFTQHLAKSLNLMRLAFNTYKISFFRSHFVLPQLRREMFLPLQDSEQDDPVEKFPPLRKKDLLRILEADSVQGDSYSDMILEKTKASSGLIFMSCEELDQDSLSQSREDFKVPIFAIGPSHSHFPASSSSLFTPDETCIPWLDRQEDKSVIYVSIGSLVTINETELMEIAWGLSNSDQPFLWVVRVGSVNGTEWIEAIPEYFIKRLNEKGKIVKWAPQQEVLKHRAIGGFLTHNGWNSTVESVCEGVPMICLPFRWDQLLNARFVSDVWMVGIHLEGRIERDEIERAIRRLLLETEGEAIRERIQLLKEKVGRSVKQNGSAYQSLQNLINYISSF | – | ++ | detected | – | – | – | – | – | – | – | – | –
AtUGT76E12: UDP-glycosyl transferase from Arabidopsis thaliana, amino acid sequence SEQ ID NO: 14 (protein, listed as Arabidopsis thaliana) MQVLGMEEKPARRSVVLVPFPAQGHISPMMQLAKTLHLKGFSITVVQTKFNYFSPSDDFTHDFQFVTIPESLPESDFKNLGPIQFLFKLNKECKVSFKDCLGQLVLQQSNEISCVIYDEFMYFAEAAAKECKLPNIIFSTTSATAFACRSVFDKLYANNVQAPLKETKGQQEELVPEFYPLRYKDFPVSRFASLESIMEVYRNTVDKRTASSVIINTASCLESSSLSFLQQQQLQIPVYPIGPLHMVASAPTSLLEENKSCIEWLNKQKVNSVIYISMGSIALMEINEIMEVASGLAASNQHFLWVIRPGSIPGSEWIESMPEEFSKMVLDRGYIVKWAPQKEVLSHPAVGGFWSHCGWNSTLESIGQGVPMICRPFSGDQKVNARYLECVWKIGIQVEGELDRGVVERAVKRLMVDEEGEEMRKRAFSLKEQLRASVKSGGSSHNSLEEFVHFIRTL | +++ | +++ | detected | – | – | – | – | + | – | +++ | – | –
HaUGT76G1L: UDP-glycosyl transferase from Helianthus annuus, amino acid sequence SEQ ID NO: 2 (protein, listed as Helianthus annuus) METQTETTNTVRRNRRIIFFPLPYQGHINPMLQLANLLYSKGFSITILHTNFNKPKTSNYPHFTFKFILDNDPHDGRYSNLPLHGMGAFNRVFVFNEDGADELRHELELLMLASKEDDEHVSCLITDALWHFTQSVADSLSLPRLVLRTSSLFSFLIYASIPLLDDRGYLSLSDNTMALILDGLGYHDLSDNKRLEEQVEEFPMLKVKDIVKMGFKREKDGAGGMIDNMVKQTKTSSGIIWNSFKELEESELETIRRDIPAPSFPIPFAKHFTASSSSLLEHDRSFFPWLDQQPPKSVVYVSFGSVAQVEEKHFMEMVHGLVDSKQLFLWVVRPGFVSGSTWLEPLPDGFPGERGRIVKWAPQQEVLGHEAIGAFWTHGGWNSTLESVCEGVPMICSPFWGDQPLDARYVSDVWKVGVYLENGWKREEITGAIRRVMTDEEMRERARVLKQKLDVSLMKGGSSYESVESLVAYVSSF | – | ++ | detected | – | – | – | – | – | – | – | – | ++
